Reference: US20100004429A1 (Kyowa Kirin, published 2010)
Numbering of substitutions follows the chain as printed.

T1: human thrombopoietin receptor (human c-Mpl) (human, UniProt P40238 26-635)
T1 sequence (looked up): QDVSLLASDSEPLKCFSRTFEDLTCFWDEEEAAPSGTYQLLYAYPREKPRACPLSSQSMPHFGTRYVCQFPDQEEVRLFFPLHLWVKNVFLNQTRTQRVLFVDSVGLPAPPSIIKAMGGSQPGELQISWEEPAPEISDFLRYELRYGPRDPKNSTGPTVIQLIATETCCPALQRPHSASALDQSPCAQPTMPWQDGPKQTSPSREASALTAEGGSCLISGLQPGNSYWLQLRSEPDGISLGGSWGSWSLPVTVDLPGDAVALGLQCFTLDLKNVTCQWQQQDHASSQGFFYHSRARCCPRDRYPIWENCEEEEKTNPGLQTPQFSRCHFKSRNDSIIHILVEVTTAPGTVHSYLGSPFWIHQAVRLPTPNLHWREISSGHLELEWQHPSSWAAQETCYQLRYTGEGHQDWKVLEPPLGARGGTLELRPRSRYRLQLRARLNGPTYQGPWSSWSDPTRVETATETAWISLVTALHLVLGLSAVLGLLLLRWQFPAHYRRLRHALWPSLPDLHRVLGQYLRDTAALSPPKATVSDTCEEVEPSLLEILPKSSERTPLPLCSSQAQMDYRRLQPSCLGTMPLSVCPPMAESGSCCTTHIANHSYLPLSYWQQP

B1: anti-human c-Mpl agonist antibody 4-49 (IgG1) (antibody, V domains shown)
VH: EEQLVESGGGLVQPGRSLRLSCTASGFTFDDYAMYWVRQVPGKGLEWVSGISWNSGSIGYADSVKGRFTVSRDNAKNSLYLQMNSLRAEDTALYYCAKALWFGEFPHYYGMDVWGQGTTVTVSS
VL: AIQLTQSPSSLSASVGDRVTITCRASQGISSTLAWYQQKPGKAPKLLIYDASSLESGVPSRFSGSGSGTDFTLTISSLQPEDFATYYCQQFNSYPYTFGQGTKLEIKR
B2: anti-human c-Mpl agonist antibody 6-4-50 (IgG1) (antibody, V domains shown)
VH: EVQLVESGGGLVQPGRSLRLSCATSGFTFDNYAMYWVRQAPGKGLEWVSGISWNSGDIGYADSVKGRFTISRDNAKNSLYLQMNSLRAEDTALYYCARDAGFGEFHYGLDVWGQGTTVTVSS
VL: B1 VL with T32A, A43V, Y96W, L104V
B3: anti-human c-Mpl agonist antibody 7-10 (IgG1) (antibody, V domains shown)
VH: EVQLVESGGGLVQPGRSLRLSCAASGFTFDDYAMHWVRQAPGKGLEWVSGISWNSGSIGYADSVKGRFTISRDNAKNSLYLQMNSLRAEDTALYYCAKNLWFGEFRYWYFDLWGRGTLVTVSS
VL: AIQLTQSPSSLSASVGDRVTITCRASQGISSALAWYQQKPGKAPKLLIYDASSLESGVPSRFSGSGSGTDFTLTISSLQPEDFATYYCQQFNSYPLTFGGGTKVEIK
B4: 7-10G4344uhm light chain mutant 7-10VL_A43V (antibody, V domains shown)
VH: B3 VH
VL: B3 VL with A43V
notes: Mutant light chain combined with the heavy chain of 7-10G4344uhm; human kappa constant region; also called 6-4-50VL substitution product 2
B5: 7-10G4344uhm light chain mutant 7-10VL_Y94F (antibody, V domains shown)
VH: B3 VH
VL: B3 VL with Y94F
notes: Human kappa constant region; also called CDR substitution product
B6: anti-human c-Mpl agonist antibody 6-5-2 (IgG1) (antibody, V domains shown)
VH: EVQLVECGGGLVQPGRSLRLSCAASGFTFDDYAMHWVRQAPGKGLEWVSGISWNSGSIGYADSVKGRFTISRDNAKNSLYLQMNSLRAEDTALYYCAKPIWFGEWGNYYGMDVWGQGTTVTVSS
VL: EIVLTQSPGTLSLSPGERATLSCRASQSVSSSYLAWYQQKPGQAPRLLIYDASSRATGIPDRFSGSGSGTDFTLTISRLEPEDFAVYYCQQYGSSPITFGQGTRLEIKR

Key:
[1] = biological target: T1, human thrombopoietin receptor (human …); assay: cell-based or functional assay
[2] = biological target: T1, human thrombopoietin receptor (human …); assay: flow cytometry on FM3A-hMpl cells
Description: The binding activity of the anti-human c-Mpl antibodies was assayed by flow cytometry using the hybridoma culture supernatants or purified antibodies in the following manner. The FM3A-hMpl cells or human Mpl expressing FDCP2 cells (FDCP-hMpl) (FEBS, Lett., Oct. 21, 1996, 395 (2-3): 228-34) were used.
Cells (4×10⁵ cells) were suspended in 50 μl of FACS staining medium (2% FBS, 0.1% NaN₃, 1 mM EDTA in PBS) per reaction, 50 μl of the hybridoma culture supernatant or purified human antibody solution (final concentration: 0.1-1 μg/ml) was added, and the reaction was carried out on ice for 30 minutes. After the washing with FACS staining medium, a secondary antibody, the R-phycoerythrin (RPE) labeled goat anti-human Igγ F(ab′) antibody (Cat#2043-09, Southern Biotechnology), was added, and the reaction was carried out again on ice under the light-shielded conditions for 30 minutes, followed by washing again. The cells were suspended in a propidium iodide (PI)-containing FACS staining medium in order to analying binding activities of the antibodies. The analysis was made using the FACS Calibur (Becton Dickinson).
The concentrations of antibodies were prepared at 1, 0.1, and 0.01 μg/ml, and flow cytometry was carried out using FM3A-hMpl cells. The experiment was carried out in accordance with the method described in Example 4. […]

[3] = biological target: T1, human thrombopoietin receptor (human …); assay: cell-based or functional assay; remark: listed apart in the source

Row | Binder | UT7/TPO (Max) [1] | further results
1 | B1 | > 80% | 
2 | B2 | > 80% | 
3 | B3 | > 90% | 
4 | B4 |  | binding result [2]: binds
5 | B5 |  | agonistic activity relative to the original 7-10G4344uhm [3]: ~0.1 fold of the original level; binding activity relative to the original 7-10G4344uhm [2]: ~0.1 fold of the original level
6 | B6 | > 50% | 
